This is an account of results in article PMC8760232, “Is reduced ferredoxin the physiological electron donor for MetVF-type methylenetetrahydrofolate reductases in acetogenesis? A hypothesis” (International Microbiology, 2021).

Series [1] addresses MetVF heterodimer of the methylene-tetrahydrofolate reductase (MTHFR) from Clostridium ljungdahlii (Clostridium ljungdahlii (endogenous in C. ljungdahlii)). Nature of the series: SEC; analytical gel filtration of the purified MTHFR on Superdex 200 Increase, column calibrated with high- and low-molecular weight kits; dimer of MetVF heterodimers. A general note: In gel filtration, larger molecules generally elute earlier.

Substrate in series [2]: Nc1nc2c(c(=O)[nH]1)N1CN(c3ccc(C(=O)N[C@@H](CCC(=O)O)C(=O)O)cc3)C[C@H]1CN2
Nature of the series: purified protein. The series is classed as biochemical, Clostridium ljungdahlii. The note with it: reduced ferredoxin as electron donor, 50 mM NaPi, 2 mM DTE, pH 7, 37 °C, methylene-THF made from formaldehyde and THF.

Broadly, the stoichiometry N is the number of molecules, sites or subunits per partner or assembly.

Consider “MetVF heterodimer of the methylene-tetrahydrofolate reductase (MTHFR) from Clostridium ljungdahlii (complex)”, for which the stoichiometry N in series [1] worked out at 2.

B1: MetVF-type methylene-THF reductase (MTHFR) of C. ljungdahlii (Clostridium ljungdahlii DSM 13528) (protein)
chain: MSLLKEAFEKGEFAITAEMAPPKGTDLSHLIECAKKIKGRVQGVNVTDFQSATLKATSLATCKVLKDAGLEPVFQITGRDRNRIAIQGELLSAGVFEIENVLALTGDYTATGDHPGAKPVYDLDSVGILQVASILNGGKDMGGTDLKGKPDFFLGACVTPRYDPLELQVIKMKKKIKAGAKFFQTQAVYDMETLKKFKEETKAQGVDAKVMVGIIPLKSAGMAKYMNKNVPGIFVPDELIDRMKNAEDKVQEGIKIAGEFIKAVKESGLCDGVHIMAIGAEENVPLILDEAGL
notes: native enzyme purified from C. ljungdahlii cytoplasm, untagged; (MetVF)2 dimer of heterodimers, ~106 kDa native; MetF 33-35 kDa, MetV 23 kDa; FMN and 4Fe-4S clusters; with Methylene-tetrahydrofolate reductase C-terminal-like domain-containing protein
In the case of B1, in series [2], the K0.5 is 70 µM.
